This note sets out measurements from FireProtDB (doi:10.1038/srep15545).

One may read the Tm as the temperature at which the thermal transition is half complete.

Sequences and labels used below:
B1: Divalent-cation tolerance protein CutA, P69488 (parent)
chain: MLDEKSSNTASVVVLCTAPDEATAQDLAAKVLAEKLAACATLIPGATSLYYWEGKLEQEYEVQMILKTTVSHQQALLECLKSHHPYQTPELLVLPVTHGDTDYLSWLNASLR

The data set covers variants of B1. The settings on record: Escherichia coli (strain K12), pH 9, Thermal, DSC, Glycine 50mM, reversible: yes, whole UniProt chain shown.

In the case of MLDEKSSNTASVVVLCTAPDEATAQDLAAKVLAEKLAACATLIPGATSLYYWEGKLEQEYVVQMILKTTVSHQQALLECLKSHHPYQTPELLVLPVTHGDTDYLSWLNASLR [E61V], where the note is “structure 1NAQ”, the Tm came out at 101 °C; the “change of melting temperature, mutant - wild type (higher = more stable)” value (from here on “change of melting temperature, mutant”) turned out to be 15.4 °C; the “unfolding enthalpy (calorimetric)” value amounted to 293 kcal/mol.

Turning to MLDEKSSNTASVVVLCTAPDEATAQDLAAKVLAEKLAACATLIPGATSLYYWEGKLEQEYEVQMILKTTVSHQQALLECLKSHHPYQRPELLVLPVTHGDTDYLSWLNASLR [T88R], under “structure 1NAQ”, the Tm was 118 °C; the “change of melting temperature, mutant” value turned out to be 32 °C; the “unfolding enthalpy (calorimetric)” value was 359 kcal/mol.

In the case of MLDEKSSNTASVVVLCTAPDEATAQDLAAKVLAEKLAACATLIPGATKLYYWEGKLEQEYEVQMILKTTVSHQQALLECLKSHHPYQTPELLVLPVTHGDTDYLSWLNASLR [S48K], for the setting “structure 1NAQ”, the Tm was 112 °C; the “change of melting temperature, mutant” value was 26.6 °C; the “unfolding enthalpy (calorimetric)” value stood at 280 kcal/mol. Moreover, for the setting “structure 4Y65”, the Tm turned out to be 118 °C; the “change of melting temperature, mutant” value stood at 32.7 °C; the “unfolding enthalpy (calorimetric)” value came to 337 kcal/mol.

On to MLDEKSSNTASVVVLCTAPDEATAQDLAAKVLAEKLAACATLIPGATSLYYWEGKLEQEYEVQMILKTTVSKQQALLECLKSHHPYQTPELLVLPVTHGDTDYLSWLNASLR [H72K], for which, under “structure 1NAQ”, the Tm stood at 118 °C; the “change of melting temperature, mutant” value came to 32.8 °C; the “unfolding enthalpy (calorimetric)” value worked out at 364 kcal/mol.

As to MLDEKSSNTASVVVLCTAPDEATAQDLAAKVLAEKLAACATLIPGATSLYYWEGKLEQEYEVQMILKTTVSHQQALLECLKSHHPYKTPELLVLPVTHGDTDYLSWLNASLR [Q87K], where the note is “structure 1NAQ”, the Tm stood at 117 °C; the “change of melting temperature, mutant” value worked out at 31.2 °C; the “unfolding enthalpy (calorimetric)” value was 340 kcal/mol.

MLDEKSSNTASVVVLCTAPDEATAQDLAAKVLAEKLAACATLIPGATSLYYWEGKLEQEYEVQMILKTTVSHQQALLECLKSHHPYQTPELLVLPVTHGDTDYLSWLNARLR [S110R]: where the note is “structure 1NAQ”, the Tm was 117 °C; the “change of melting temperature, mutant” value was found to be 31.7 °C; the “unfolding enthalpy (calorimetric)” value worked out at 391 kcal/mol.

For the variant MLDEKSSNTASVVVLCTAPDEATAQDLAAKVLAEKLAADATLIPGATSLYYWEGKLEQEYEVQMILKTTVSHQQALLECLKSHHPYQTPELLVLPVTHGDTDYLSWLNASLR [C39D], for the setting “structure 4Y65”, the Tm is 105 °C; the “change of melting temperature, mutant” value came out at 19.8 °C; the “unfolding enthalpy (calorimetric)” value worked out at 286 kcal/mol.

With MLDEKSSNTASVVVLCTAPDEATAQDLAAKVLAEKLAACATLIPGATKLYYWEGKLEQEYEVQMILKTTVSKQQALLECLKKHHPYKRPELLVLPVTHGDTDYLSWLNASLR [S48K H72K S82K Q87K T88R], for the setting “structure 1NAQ”, the Tm was found to be 137 °C; the “change of melting temperature, mutant” value was found to be 51.2 °C; the “unfolding enthalpy (calorimetric)” value turned out to be 416 kcal/mol.

Consider MLDEKSSNTASVVVLCKAPDEATAQDLAAKVLAEKLAACATLIPGATSLYYWEGKLEQEYEVQMILKTTVSHQQALLECLKSHHPYQTPELLVLPVTHGDTDYLSWLNASLR [T17K], for which, for the setting “structure 1NAQ”, the Tm amounted to 107 °C; the “change of melting temperature, mutant” value was 21.6 °C; the “unfolding enthalpy (calorimetric)” value came to 314 kcal/mol.

With MLDEKSSNTAVVVVLCTAPDEATAQDLAAKVLAEKLAACATLIPGATSLYYWEGKLEQEYVVQMILKTTVSHQQALLECLKSHHPYQTPELLVLPVTHGDTDYLSWLNASLR [S11V E61V], under “structure 1NAQ”, the Tm was determined as 113 °C; the “change of melting temperature, mutant” value came out at 27.6 °C; the “unfolding enthalpy (calorimetric)” value turned out to be 375 kcal/mol.

Regarding MLDEKSSNTASVVVLCTAPDEATAQDLAAKVLAEKLAACATLIPGATSLYYWEGKLEQEYEVQMILKTTVSHQQALLECLKKHHPYQTPELLVLPVTHGDTDYLSWLNASLR [S82K], where the note is “structure 1NAQ”, the Tm was determined as 117 °C; the “change of melting temperature, mutant” value was determined as 31.3 °C; the “unfolding enthalpy (calorimetric)” value worked out at 353 kcal/mol.

As to MLDEKSSNTASVVVLCTAPDEATAQDLAAKVLAEKLAACATLIPGATSLYYWEGKLEQEYEVQMILKTTVSHQQALLECLKRHHPYQTPELLVLPVTHGDTDYLSWLNASLR [S82R], under “structure 1NAQ”, the Tm came to 117 °C; the “change of melting temperature, mutant” value was found to be 31.5 °C; the “unfolding enthalpy (calorimetric)” value is 346 kcal/mol.

Regarding MLDEKSSNTASVVVLCTAPDEATAQDLAAKVLAEKLAACATLIPGATSLYYWEGKLEQEYEVQMILKTTVSHQQALLECLKSHHPYKRPELLVLPVTHGDTDYLSWLNASLR [Q87K T88R], where the note is “structure 1NAQ”, the Tm came to 122 °C; the “change of melting temperature, mutant” value turned out to be 36.8 °C; the “unfolding enthalpy (calorimetric)” value worked out at 378 kcal/mol.

For the variant MLDEKSSNTAVVVVLCTAPDEATAQDLAAKVLAEKLAACATLIPGATSLYYWEGKLEQEYEVQMILKTTVSHQQALLECLKSHHPYQTPELLVLPVTHGDTDYLSWLNASLR [S11V], where the note is “structure 1NAQ”, the Tm came out at 103 °C; the “change of melting temperature, mutant” value is 17.1 °C; the “unfolding enthalpy (calorimetric)” value turned out to be 311 kcal/mol.
